Test results published in the supplement of paper PMC9876800.

Test system: peptide library, one residue held at a place counted from the S/T acceptor
Assay: relative phosphorylation of the sub-library (ratio to the mean residue at this position); higher = residue favoured
Conditions: human
Summary of the method: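 Each biotinylated degenerate peptide sub-library fixed one residue at one position around a central Ser/Thr and was incubated with a purified recombinant kinase, a human or orthologue construct, in 384-well plates. The 90 min reactions, under kinase-specific conditions, contained 50 μM peptide and 50 μM ATP spiked with γ-32P-ATP. Phosphorylation was read by phosphorimaging spots on streptavidin membranes and quantifying them by densitometry. Relative sub-library phosphorylation expresses each value as a ratio to the mean residue at that position.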

Sequence of MARK3, construct: Full length (P27448 whole entry, looked up): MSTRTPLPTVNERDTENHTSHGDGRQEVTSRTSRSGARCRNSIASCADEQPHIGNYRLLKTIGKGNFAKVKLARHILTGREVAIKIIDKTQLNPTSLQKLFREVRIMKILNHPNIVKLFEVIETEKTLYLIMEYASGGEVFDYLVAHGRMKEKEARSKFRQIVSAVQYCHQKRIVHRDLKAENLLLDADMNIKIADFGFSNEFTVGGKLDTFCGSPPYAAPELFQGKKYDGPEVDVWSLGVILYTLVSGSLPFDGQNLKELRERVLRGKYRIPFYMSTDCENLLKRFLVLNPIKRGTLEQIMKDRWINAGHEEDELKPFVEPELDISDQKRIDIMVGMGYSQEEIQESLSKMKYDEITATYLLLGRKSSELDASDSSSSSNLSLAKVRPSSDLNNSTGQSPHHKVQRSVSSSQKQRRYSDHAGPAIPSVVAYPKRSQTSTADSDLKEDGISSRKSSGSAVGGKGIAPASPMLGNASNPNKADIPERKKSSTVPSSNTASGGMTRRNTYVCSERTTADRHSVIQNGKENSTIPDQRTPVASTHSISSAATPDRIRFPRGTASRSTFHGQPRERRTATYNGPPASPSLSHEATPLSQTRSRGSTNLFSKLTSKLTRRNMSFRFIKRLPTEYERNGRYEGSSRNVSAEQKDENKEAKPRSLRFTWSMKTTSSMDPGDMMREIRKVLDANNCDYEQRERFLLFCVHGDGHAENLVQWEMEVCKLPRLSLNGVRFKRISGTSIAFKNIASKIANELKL
Sequence of CAMKK2, construct: Full length (Q96RR4 whole entry, looked up): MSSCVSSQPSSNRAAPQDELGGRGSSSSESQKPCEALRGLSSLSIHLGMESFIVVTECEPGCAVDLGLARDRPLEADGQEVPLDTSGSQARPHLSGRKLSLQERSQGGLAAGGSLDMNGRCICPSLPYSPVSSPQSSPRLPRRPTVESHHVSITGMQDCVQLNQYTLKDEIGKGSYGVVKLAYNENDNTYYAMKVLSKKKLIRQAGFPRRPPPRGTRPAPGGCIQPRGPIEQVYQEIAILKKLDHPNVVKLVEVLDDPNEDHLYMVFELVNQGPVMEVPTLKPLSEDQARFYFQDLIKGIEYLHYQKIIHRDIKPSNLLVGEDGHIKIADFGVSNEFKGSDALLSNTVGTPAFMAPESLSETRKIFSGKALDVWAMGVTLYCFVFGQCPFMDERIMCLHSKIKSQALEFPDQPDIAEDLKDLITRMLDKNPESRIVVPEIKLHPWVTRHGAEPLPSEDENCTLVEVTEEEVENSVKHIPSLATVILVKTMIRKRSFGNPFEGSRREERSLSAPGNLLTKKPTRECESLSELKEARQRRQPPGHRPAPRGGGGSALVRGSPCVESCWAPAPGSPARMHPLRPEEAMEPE
Sequence of TAOK2, construct: aa1-350 (Q9UL54 1-350, looked up): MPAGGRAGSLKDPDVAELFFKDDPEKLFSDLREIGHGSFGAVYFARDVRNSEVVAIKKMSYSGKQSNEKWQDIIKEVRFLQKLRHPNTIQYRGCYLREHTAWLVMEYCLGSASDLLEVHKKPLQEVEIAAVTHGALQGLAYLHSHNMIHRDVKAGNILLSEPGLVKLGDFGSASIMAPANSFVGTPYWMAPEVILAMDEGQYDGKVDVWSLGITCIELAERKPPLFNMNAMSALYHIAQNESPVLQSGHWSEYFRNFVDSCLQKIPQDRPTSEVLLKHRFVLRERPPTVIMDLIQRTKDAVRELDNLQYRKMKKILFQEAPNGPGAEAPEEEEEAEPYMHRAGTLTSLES

MARK3, construct: Full length (from UniProt P27448)
relative phosphorylation
Conditions | at +1 | at +2 | at +3 | at +4 | at -1 | at -2 | at -3 | at -4 | at -5
A fixed | 0.634 | 0.761 | 0.599 | 0.335 | 1.09 | 2.23 | 0.806 | 1.19 | 1.16
D fixed | 0.414 | 0.68 | 2.56 | 0.456 | 0.61 | 0.317 | 0.412 | 0.765 | 0.758
E fixed | 0.82 | 0.902 | 0.95 | 0.319 | 0.605 | 0.263 | 0.458 | 0.703 | 0.72
F fixed | 0.651 | 0.746 | 0.792 | 0.619 | 0.499 | 1.29 | 0.758 | 0.987 | 1.12
G fixed | 0.542 | 0.47 | 0.559 | 0.385 | 2.52 | 1.37 | 0.687 | 1.32 | 1.03
H fixed | 0.76 | 0.879 | 1.56 | 0.489 | 0.708 | 1.21 | 1.41 | 1.19 | 0.86
I fixed | 1.14 | 0.863 | 0.486 | 2.82 | 0.441 | 0.444 | 0.497 | 0.565 | 0.817
K fixed | 0.932 | 0.651 | 0.731 | 0.487 | 1.92 | 0.995 | 2.2 | 1.71 | 1.4
L fixed | 1.25 | 1.16 | 0.782 | 5.82 | 0.654 | 0.392 | 0.6 | 0.642 | 1.49
M fixed | 2.38 | 0.994 | 0.708 | 1.22 | 0.75 | 0.571 | 0.772 | 0.833 | 1.06
N fixed | 1.26 | 0.998 | 3.05 | 0.526 | 1.06 | 0.583 | 0.682 | 0.916 | 0.627
P fixed | 0.337 | 0.826 | 0.2 | 0.348 | 1.37 | 0.546 | 0.925 | 1.13 | 0.964
Q fixed | 1.62 | 0.955 | 0.929 | 0.473 | 1.19 | 0.488 | 0.736 | 0.808 | 0.722
R fixed | 1.45 | 0.708 | 0.706 | 0.349 | 1.66 | 0.969 | 3.51 | 1.52 | 1.45
V fixed | 1.23 | 0.898 | 0.488 | 1.33 | 0.707 | 0.628 | 0.524 | 0.673 | 0.824
W fixed | 0.75 | 3.62 | 0.927 | 0.557 | 0.585 | 3.05 | 1.19 | 1.19 | 1.08
Y fixed | 0.831 | 0.888 | 0.969 | 0.461 | 0.633 | 1.65 | 0.83 | 0.856 | 0.915
pThr fixed | 1.49 | 1.34 | 0.404 | 0.369 | 0.348 | 0.44 | 0.553 | 0.726 | 0.573
pTyr fixed | 0.705 | 0.679 | 0.944 | 0.328 | 0.841 | 0.64 | 0.855 | 0.686 | 0.735

CAMKK2, construct: Full length (from UniProt Q96RR4)
relative phosphorylation
Conditions | at +1 | at +2 | at +3 | at +4 | at -1 | at -2 | at -3 | at -4 | at -5
A fixed | 1.16 | 0.999 | 0.931 | 0.783 | 1.27 | 0.476 | 1.17 | 0.993 | 1.31
D fixed | 0.612 | 1.03 | 1.09 | 1.14 | 1.17 | 0.349 | 0.289 | 0.949 | 1.02
E fixed | 0.647 | 0.701 | 0.995 | 0.774 | 1.24 | 0.313 | 0.317 | 0.905 | 0.843
F fixed | 0.787 | 0.602 | 0.861 | 1.12 | 0.671 | 1.91 | 1.44 | 0.939 | 0.93
G fixed | 0.848 | 1.24 | 1.36 | 1.09 | 0.731 | 0.434 | 0.846 | 1.11 | 1.29
H fixed | 0.46 | 1.21 | 0.888 | 1.1 | 0.934 | 0.748 | 1.23 | 1.15 | 1.09
I fixed | 1.27 | 0.734 | 0.702 | 0.589 | 0.46 | 0.558 | 0.672 | 0.481 | 0.529
K fixed | 1.03 | 1.04 | 0.971 | 1.18 | 1.6 | 0.629 | 0.567 | 0.887 | 1.02
L fixed | 1.1 | 0.786 | 0.783 | 0.953 | 0.974 | 2.57 | 0.981 | 0.762 | 0.561
M fixed | 1.92 | 1.14 | 0.834 | 0.979 | 1.2 | 2.46 | 1.65 | 1.04 | 0.887
N fixed | 1.02 | 1.4 | 1.22 | 0.991 | 1.15 | 0.594 | 0.66 | 0.95 | 0.917
P fixed | 0.328 | 1.26 | 1.61 | 1.64 | 0.268 | 0.363 | 1.48 | 0.931 | 1.29
Q fixed | 1.07 | 0.937 | 1.05 | 1.09 | 1.6 | 0.727 | 1.09 | 1.05 | 1.08
R fixed | 1.18 | 1.32 | 1.04 | 0.852 | 1.65 | 0.885 | 0.856 | 1.11 | 1.21
V fixed | 1.19 | 0.93 | 0.706 | 0.884 | 0.601 | 0.548 | 0.953 | 0.583 | 0.753
W fixed | 1.22 | 0.742 | 0.971 | 0.981 | 0.693 | 0.873 | 1.48 | 1.79 | 1.25
Y fixed | 1.18 | 0.927 | 0.988 | 0.861 | 0.786 | 2.56 | 1.32 | 1.37 | 1.02
pThr fixed | 0.769 | 0.87 | 1.03 | 1.14 | 0.432 | 0.493 | 0.711 | 0.711 | 0.884
pTyr fixed | 0.827 | 0.75 | 1.43 | 1.09 | 0.973 | 0.634 | 0.525 | 0.831 | 0.776

TAOK2, construct: aa1-350 (from UniProt Q9UL54)
relative phosphorylation
Conditions | at +1 | at +2 | at +3 | at +4 | at -1 | at -2 | at -3 | at -4 | at -5
A fixed | 0.607 | 0.791 | 0.808 | 0.75 | 0.832 | 0.94 | 0.901 | 0.992 | 1.03
D fixed | 0.505 | 0.606 | 0.532 | 0.619 | 0.726 | 0.706 | 0.741 | 0.931 | 1.01
E fixed | 0.496 | 0.483 | 0.501 | 0.593 | 0.566 | 0.621 | 0.725 | 0.92 | 0.888
F fixed | 1.23 | 0.651 | 0.845 | 0.887 | 0.938 | 1.4 | 0.806 | 0.907 | 0.896
G fixed | 0.606 | 0.697 | 0.953 | 0.937 | 1.45 | 1.13 | 1.34 | 1.14 | 1.13
H fixed | 0.855 | 0.993 | 0.924 | 1.04 | 1.28 | 1.01 | 1.06 | 1.08 | 1.06
I fixed | 1.47 | 0.723 | 0.761 | 0.763 | 0.561 | 0.703 | 0.642 | 0.746 | 0.73
K fixed | 0.753 | 2.65 | 2 | 1.72 | 1.11 | 0.981 | 2.14 | 1.46 | 1.45
L fixed | 1.49 | 0.644 | 0.807 | 0.778 | 1.1 | 0.709 | 0.672 | 0.781 | 0.767
M fixed | 1.49 | 0.734 | 0.735 | 0.764 | 1.26 | 0.978 | 0.828 | 0.857 | 0.827
N fixed | 0.64 | 1.24 | 0.876 | 0.845 | 1.16 | 0.972 | 0.944 | 1.1 | 1.05
P fixed | 0.589 | 0.76 | 0.906 | 0.834 | 0.667 | 0.876 | 0.777 | 0.965 | 0.969
Q fixed | 0.727 | 0.884 | 0.838 | 0.949 | 0.851 | 0.896 | 1 | 1.01 | 0.977
R fixed | 0.778 | 2.81 | 2.84 | 2.19 | 1.27 | 1.1 | 1.59 | 1.28 | 1.38
V fixed | 1.09 | 0.812 | 0.753 | 0.738 | 0.583 | 0.731 | 0.672 | 0.818 | 0.889
W fixed | 2.32 | 0.69 | 1.04 | 1.35 | 1.1 | 1.08 | 1.02 | 1 | 0.986
Y fixed | 1.35 | 0.835 | 0.873 | 1.24 | 1.54 | 2.16 | 1.13 | 1.01 | 0.96
pThr fixed | 0.639 | 0.557 | 0.614 | 0.55 | 0.605 | 0.742 | 0.817 | 0.964 | 1
pTyr fixed | 0.577 | 0.54 | 0.626 | 0.609 | 1.27 | 0.822 | 0.909 | 1.03 | 1.1
